{"source": "IntAct's records for PubMed 25910212", "parents": {"B1": {"name": "Keratin, type II cytoskeletal 2 epidermal (Homo sapiens), P35908 (parent)", "chain": "MSCQISCKSRGRGGGGGGFRGFSSGSAVVSGGSRRSTSSFSCLSRHGGGGGGFGGGGFGSRSLVGLGGTKSISISVAGGGGGFGAAGGFGGRGGGFGGGSSFGGGSGFSGGGFGGGGFGGGRFGGFGGPGGVGGLGGPGGFGPGGYPGGIHEVSVNQSLLQPLNVKVDPEIQNVKAQEREQIKTLNNKFASFIDKVRFLEQQNQVLQTKWELLQQMNVGTRPINLEPIFQGYIDSLKRYLDGLTAERTSQNSELNNMQDLVEDYKKKYEDEINKRTAAENDFVTLKKDVDNAYMIKVELQSKVDLLNQEIEFLKVLYDAEISQIHQSVTDTNVILSMDNSRNLDLDSIIAEVKAQYEEIAQRSKEEAEALYHSKYEELQVTVGRHGDSLKEIKIEISELNRVIQRLQGEIAHVKKQCKNVQDAIADAEQRGEHALKDARNKLNDLEEALQQAKEDLARLLRDYQELMNVKLALDVEIATYRKLLEGEECRMSGDLSSNVTVSVTSSTISSNVASKAAFGGSGGRGSSSGGGYSSGSSSYGSGGRQSGSRGGSGGGGSISGGGYGSGGGSGGRYGSGGGSKGGSISGGGYGSGGGKHSSGGGSRGGSSSGGGYGSGGGGSSSVKGSSGEAFGSSVTFSFR", "partner": "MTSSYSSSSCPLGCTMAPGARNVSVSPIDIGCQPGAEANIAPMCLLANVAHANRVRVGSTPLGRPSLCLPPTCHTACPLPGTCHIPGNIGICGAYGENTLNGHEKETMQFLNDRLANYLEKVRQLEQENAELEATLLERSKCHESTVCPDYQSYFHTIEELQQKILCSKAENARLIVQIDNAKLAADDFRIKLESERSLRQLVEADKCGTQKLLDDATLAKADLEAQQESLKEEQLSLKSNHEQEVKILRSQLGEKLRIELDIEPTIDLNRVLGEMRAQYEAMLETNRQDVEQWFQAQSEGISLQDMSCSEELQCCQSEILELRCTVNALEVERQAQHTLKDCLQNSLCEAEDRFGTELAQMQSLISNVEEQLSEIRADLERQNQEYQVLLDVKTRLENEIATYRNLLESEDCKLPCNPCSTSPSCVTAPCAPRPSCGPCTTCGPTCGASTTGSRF"}, "B2": {"name": "Keratin, type II cytoskeletal 6A (Homo sapiens), P02538 (parent)", "chain": "MASTSTTIRSHSSSRRGFSANSARLPGVSRSGFSSVSVSRSRGSGGLGGACGGAGFGSRSLYGLGGSKRISIGGGSCAISGGYGSRAGGSYGFGGAGSGFGFGGGAGIGFGLGGGAGLAGGFGGPGFPVCPPGGIQEVTVNQSLLTPLNLQIDPTIQRVRAEEREQIKTLNNKFASFIDKVRFLEQQNKVLETKWTLLQEQGTKTVRQNLEPLFEQYINNLRRQLDSIVGERGRLDSELRGMQDLVEDFKNKYEDEINKRTAAENEFVTLKKDVDAAYMNKVELQAKADTLTDEINFLRALYDAELSQMQTHISDTSVVLSMDNNRNLDLDSIIAEVKAQYEEIAQRSRAEAESWYQTKYEELQVTAGRHGDDLRNTKQEIAEINRMIQRLRSEIDHVKKQCANLQAAIADAEQRGEMALKDAKNKLEGLEDALQKAKQDLARLLKEYQELMNVKLALDVEIATYRKLLEGEECRLNGEGVGQVNISVVQSTVSSGYGGASGVGSGLGLGGGSSYSYGSGLGVGGGFSSSSGRAIGGGLSSVGGGSSTIKYTTTSSSSRKSYKH"}, "B3": {"name": "LHFPL tetraspan subfamily member 5 protein (Homo sapiens), Q8TAF8 (parent)", "chain": "MVKLLPAQEAAKIYHTNYVRNSRAVGVMWGTLTICFSVLVMALFIQPYWIGDSVNTPQAGYFGLFSYCVGNVLSSELICKGGPLDFSSIPSRAFKTAMFFVALGMFLIIGSIICFSLFFICNTATVYKICAWMQLAAATGLMIGCLVYPDGWDSSEVRRMCGEQTGKYTLGHCTIRWAFMLAILSIGDALILSFLAFVLGYRQDKLLPDDYKADGTEEV", "partner": "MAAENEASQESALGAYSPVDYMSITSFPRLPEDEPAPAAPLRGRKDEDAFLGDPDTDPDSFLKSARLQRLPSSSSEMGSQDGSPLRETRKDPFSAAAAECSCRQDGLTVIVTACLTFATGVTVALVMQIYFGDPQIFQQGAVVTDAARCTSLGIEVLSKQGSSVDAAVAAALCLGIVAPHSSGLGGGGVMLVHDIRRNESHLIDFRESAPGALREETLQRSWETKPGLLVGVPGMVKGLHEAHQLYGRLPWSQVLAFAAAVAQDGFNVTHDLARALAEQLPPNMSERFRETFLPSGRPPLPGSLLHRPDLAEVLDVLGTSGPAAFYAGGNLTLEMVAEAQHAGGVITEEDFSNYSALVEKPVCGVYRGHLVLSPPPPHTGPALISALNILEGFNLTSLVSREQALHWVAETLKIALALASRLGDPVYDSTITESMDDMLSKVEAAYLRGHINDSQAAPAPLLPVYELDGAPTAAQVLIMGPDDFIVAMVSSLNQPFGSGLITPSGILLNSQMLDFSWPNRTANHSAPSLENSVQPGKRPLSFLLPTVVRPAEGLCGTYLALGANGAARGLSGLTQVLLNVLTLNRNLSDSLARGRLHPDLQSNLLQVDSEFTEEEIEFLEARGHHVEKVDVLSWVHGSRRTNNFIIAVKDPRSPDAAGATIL"}}, "data": [{"variants_of": "B1", "conditions": "with krt38_human KRT38, O76015", "values": [{"variant": "N186K", "effect of a mutation on the interaction": "with no effect"}, {"variant": "I477N", "effect of a mutation on the interaction": "disrupting interaction strength"}]}, {"variants_of": "B1", "conditions": "with krt38_human KRT38, O76015", "remark": "another data set of the same source", "values": [{"variant": "G219D", "effect of a mutation on the interaction": "with no effect"}]}, {"variants_of": "B2", "conditions": "with KRT15, P19012", "values": [{"variant": "N21S", "effect of a mutation on the interaction": "with no effect"}, {"variant": "V523F", "effect of a mutation on the interaction": "with no effect"}, {"variant": "F249L", "effect of a mutation on the interaction": "with no effect"}, {"variant": "T552S", "effect of a mutation on the interaction": "with no effect"}]}, {"variants_of": "B2", "conditions": "with KRT40, Q6A162", "values": [{"variant": "N21S", "effect of a mutation on the interaction": "with no effect"}, {"variant": "V523F", "effect of a mutation on the interaction": "with no effect"}, {"variant": "A463P", "effect of a mutation on the interaction": "disrupting interaction strength"}, {"variant": "F249L", "effect of a mutation on the interaction": "with no effect"}, {"variant": "I462S", "effect of a mutation on the interaction": "disrupting interaction strength"}, {"variant": "T552S", "effect of a mutation on the interaction": "with no effect"}]}, {"variants_of": "B2", "conditions": "with k1h1_human KRT31, Q15323", "values": [{"variant": "N21S", "effect of a mutation on the interaction": "with no effect"}, {"variant": "V523F", "effect of a mutation on the interaction": "with no effect"}, {"variant": "F249L", "effect of a mutation on the interaction": "with no effect"}, {"variant": "T552S", "effect of a mutation on the interaction": "with no effect"}]}, {"variants_of": "B2", "conditions": "with tfp11_human TFIP11, Q9UBB9", "values": [{"variant": "N21S", "effect of a mutation on the interaction": "with no effect"}, {"variant": "V523F", "effect of a mutation on the interaction": "with no effect"}, {"variant": "F249L", "effect of a mutation on the interaction": "with no effect"}, {"variant": "I462S", "effect of a mutation on the interaction": "disrupting interaction strength"}, {"variant": "T552S", "effect of a mutation on the interaction": "with no effect"}]}, {"variants_of": "B2", "conditions": "with goga2_human GOLGA2, Q08379", "values": [{"variant": "N21S", "effect of a mutation on the interaction": "with no effect"}, {"variant": "V523F", "effect of a mutation on the interaction": "with no effect"}, {"variant": "A463P", "effect of a mutation on the interaction": "with no effect"}, {"variant": "F174V", "effect of a mutation on the interaction": "with no effect"}, {"variant": "F249L", "effect of a mutation on the interaction": "with no effect"}, {"variant": "I462S", "effect of a mutation on the interaction": "with no effect"}, {"variant": "T552S", "effect of a mutation on the interaction": "with no effect"}, {"variant": "N171K", "effect of a mutation on the interaction": "disrupting interaction strength"}]}, {"variants_of": "B2", "conditions": "with KRT15, P19012", "remark": "another data set of the same source", "values": [{"variant": "A463P", "effect of a mutation on the interaction": "with no effect"}, {"variant": "F174V", "effect of a mutation on the interaction": "with no effect"}, {"variant": "I462S", "effect of a mutation on the interaction": "with no effect"}, {"variant": "N171K", "effect of a mutation on the interaction": "with no effect"}]}, {"variants_of": "B2", "conditions": "with KRT40, Q6A162", "remark": "another data set of the same source", "values": [{"variant": "A463P", "effect of a mutation on the interaction": "with no effect"}, {"variant": "F174V", "effect of a mutation on the interaction": "with no effect"}, {"variant": "I462S", "effect of a mutation on the interaction": "with no effect"}, {"variant": "N171K", "effect of a mutation on the interaction": "with no effect"}]}, {"variants_of": "B2", "conditions": "with k1h1_human KRT31, Q15323", "remark": "another data set of the same source", "values": [{"variant": "A463P", "effect of a mutation on the interaction": "with no effect"}, {"variant": "F174V", "effect of a mutation on the interaction": "with no effect"}, {"variant": "I462S", "effect of a mutation on the interaction": "with no effect"}, {"variant": "N171K", "effect of a mutation on the interaction": "with no effect"}]}, {"variants_of": "B2", "conditions": "with tfp11_human TFIP11, Q9UBB9", "remark": "another data set of the same source", "values": [{"variant": "A463P", "effect of a mutation on the interaction": "disrupting interaction strength"}, {"variant": "F174V", "effect of a mutation on the interaction": "with no effect"}, {"variant": "I462S", "effect of a mutation on the interaction": "with no effect"}, {"variant": "N171K", "effect of a mutation on the interaction": "with no effect"}]}, {"variants_of": "B3", "conditions": "with ggt7_human GGT7, Q9UJ14", "values": [{"variant": "Y127C", "effect of a mutation on the interaction": "disrupting interaction strength"}, {"variant": "T165M", "effect of a mutation on the interaction": "disrupting interaction strength"}]}]}
